Our source for the stoichiometry N and Kd values is publication PMC3925092.

The target in assay [1] is Hcp1 (hemolysin co-regulated protein 1) of the Sci-1 T6SS of enteroaggregative E. coli, wild type (enteroaggregative E. coli 17-2). The assay can be described thus: SEC-MALS; SEC/MALS/UV/RI on KW803 and KW804 columns (Shodex), Tris-HCl 20 mM pH 7.5, NaCl 100 mM, 0.5 ml/min; monomers in the hexamer. In general terms: Size exclusion chromatography separates by hydrodynamic size, large species first.

Assay [2] has the same target. The assay can be described thus: SPR; BIAcore T200, 25°C; Hcp1 immobilised by amine coupling (CM5 chip in the results, HC200m Xantech chip in the methods), Hcp1 3.75-120 µM as analyte in HBS-EP; steady state, 1:1 equilibrium model; hexamer with hexamer; Hcp1WW tested in the same conditions. For orientation: In SPR one partner is held on a chip, and binding of the other changes the refractive index at the surface.

Assay [3] has as its target Hcp1 N93W/S158W double mutant (Hcp1WW) (enteroaggregative E. coli 17-2). The experiment in a line: SEC-MALS; MALLS-SEC-UV of Hcp1WW, data not shown; monomers in the hexamer.
For assay [4], the target named is Hcp2 of enteroaggregative E. coli (second T6SS gene cluster), wild type (enteroaggregative E. coli 17-2). The experiment in a line: SEC-MALS; SEC/MALS/UV/RI on KW803 and KW804 columns (Shodex), Tris-HCl 20 mM pH 7.5, NaCl 100 mM, 0.5 ml/min; monomers in the hexamer.

In the case of “Hcp1 (hemolysin co-regulated protein 1) of the Sci-1 T6SS of enteroaggregative E. coli, wild type (natural protein)”, the stoichiometry N (in general, the number of molecules, sites or subunits per partner or assembly) in assay [1] was determined as 6. For the same substance, the equilibrium dissociation constant (Kd) (in general, a measure of binding affinity in units of concentration) in assay [2] was 7.2 µM.

In turn, “Hcp1 N93W/S158W double mutant (Hcp1WW) (natural protein)” came in with a stoichiometry N in assay [3] of 6.

In assay [4], “Hcp2 of enteroaggregative E. coli (second T6SS gene cluster), wild type (natural protein)” came in with a stoichiometry N of 6.
